Fewer inactive variants are shown than the library holds.

First the molecules themselves.
B1: TPR 5TU (parent)
chain: GGAUCUUCUCGAUCUAACAAAAAAGACAAAUCUGCCACAAAGCUUGAGAGCAUCUUCGGAUGCAGAGGCGGCAGCCUUCGGUGGCGCGAUAGCGCCAACGUUCUCAACUAUGACACGCAAAACGCGUGCUCCGUUGAAUGGAGUUUAUCAUG

This data set covers variants of B1. As to the kind of experiment: polymerase ribozyme fitness, log enrichment relative to wild type (log ratio); higher = more active; in vitro selection for triplet polymerase activity. The essentials: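 Streptavidin-bead capture of gel-excised extended constructs, followed by RT-PCR, closed a single triplicate in vitro selection round. That round began by annealing PCR-built, transcribed mutant libraries of each subunit of a heterodimeric triplet polymerase ribozyme with a biotinylated primer, the partner subunit and triplets, then incubating them frozen at −7 °C. After Illumina sequencing of inputs and outputs, genotypes needed ≥10 input reads and ≥1 read per output. Fitness is the base-2 logarithm of genotype enrichment over wild-type enrichment, using inverse-variance-weighted replicate averages.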
With C14G A30C C35A G48A C87G U102A, the “polymerase ribozyme fitness (log ratio)” value is not above -4.2.
Take A12U C85U C99G: the “polymerase ribozyme fitness (log ratio)” value is -1.04.
For the variant A12G A23U U56A C93G, the “polymerase ribozyme fitness (log ratio)” value is not above -4.2.
Turning to A12G G59A A66C C79A C108U C116A, the “polymerase ribozyme fitness (log ratio)” value was not above -4.2.
Take U13G C32U G88C A97U: the “polymerase ribozyme fitness (log ratio)” value was not above -4.2.
The figure for A12U C14G A20G A73G U77A G86U C96U G117U is not above -4.2.
Consider U13A C32A G42A C75A C76U C87G A106C A138U G141C, for which the “polymerase ribozyme fitness (log ratio)” value is not above -4.2.
The figure for A12U G50A C85A C87U G133C is not above -4.2.
In the case of U13C C96A C99U it was -1.75.
Turning to A12U G48U C51A G58C U61G C114U, the “polymerase ribozyme fitness (log ratio)” value is not above -4.2.
In the case of A12U A120C it was -0.776; in that of U13G G42A A49G U56A C57A G80A, not above -4.2; in that of C14G C96U U134C, -2.72.
The figure for A12G A23G U31A C35U U56A is -3.98; for U13G A40C A73G C85U it is -2.84.
Turning to U13A A23U U31A A37C G84U C125A G140A G152U, the “polymerase ribozyme fitness (log ratio)” value is not above -4.2.
The figure for A12U A41C U55G A66G G88U G94U U134A G136C U151A is not above -4.2.
In the case of A12U G84A G88C A119C G140A it was not above -4.2.
Consider C14G A16C C51U G94U C125U, for which the “polymerase ribozyme fitness (log ratio)” value is -3.93.
The figure for C14G A17C is -2.89.
In the case of C14G G84A C85G A106G it was not above -4.2; in that of A12U A16G A40C U55A G81A C118G C129A, not above -4.2; in that of A12U G81A C85A C99U, -1.62.
The figure for A12G A41G is 0.519; for U13A C54A A91C it is not above -4.2; for C14G G50A C54U C93A U139A it is not above -4.2.
As for C14A G58C C93U, the “polymerase ribozyme fitness (log ratio)” value is -2.75.
The figure for A12U A41C is -0.744; for U13G A49C G152U it is not above -4.2; for C14A C54G G62A G86U U101G G141U it is not above -4.2.
Consider U13A A24U C96G, for which the “polymerase ribozyme fitness (log ratio)” value is -1.33.
The figure for C14G A29U is -3.98; for U13G G59U C85U G94U G112A C116A it is not above -4.2; for C14G A47C A52G A115C A119G it is not above -4.2.
The figure for A12U A19U A37U U55A is -3.16; for U13G U82A C96U U130A it is -3.83; for C14G U15C C38U C114U it is -2.11.
Take A12U A22G C35U G58A A91C A98G C116G: the “polymerase ribozyme fitness (log ratio)” value was -4.07.
The figure for A12G C38U G86A C87U A121C G136A is not above -4.2.
The figure for A12G U33G C36A G86U A110C C118U C123U is not above -4.2; for A12U G84U G100U it is not above -4.2; for U13G U44A G68C G88A C95A U144A it is not above -4.2.
In the case of U13G A37U C76G G84U A107U C123U U139G it was not above -4.2; in that of C14A U61A, -3.22.
With U13A A41C C43G A60C A138G A150G, the “polymerase ribozyme fitness (log ratio)” value is not above -4.2.
The figure for C14G A19G A20C G117A G124C is -3.94; for U13C A22C U53A C116A it is 0.349; for U13G C36U A52G G70A G84U it is -0.614.
Turning to A12G C35A G74A U101A A147U, the “polymerase ribozyme fitness (log ratio)” value is not above -4.2.
For the variant C14A U53A C87G, the “polymerase ribozyme fitness (log ratio)” value was not above -4.2.
As to A12G C36A U55G G71A C96G C116A U134G, the “polymerase ribozyme fitness (log ratio)” value is not above -4.2.
In the case of U13A C103A it was -2.51.
In the case of C14G G92C it was -2.66.
The figure for C14G G92A is -4.15.
For the variant C14G G50U C87U C96A, the “polymerase ribozyme fitness (log ratio)” value was -4.12.
For C14G G80A, the “polymerase ribozyme fitness (log ratio)” value is -1.72.
A12G C75G A119C: the “polymerase ribozyme fitness (log ratio)” value is -3.34.
Regarding U13G A16U U33G G50C G81C G143A, the “polymerase ribozyme fitness (log ratio)” value is not above -4.2.
The figure for C14A A39U C85G G140A is not above -4.2; for A12G A28C C116A A147C it is not above -4.2; for C14G A19C A22C U61A A91U C105G C108G C114U A120G it is not above -4.2.
The figure for C14A A115G is -2.5.
Regarding U13C A41U U55A C96U C118A, the “polymerase ribozyme fitness (log ratio)” value is -2.88.
In the case of C14A A23U U31C U44A A73G G83C A110G it was not above -4.2; in that of C14G U45G G46A C54U C72A U139G A142U, not above -4.2; in that of C14A G48C U56A C96A, -3.68.
In the case of A12U C36U it was -2.21; in that of C14G A97C A110U A120G U134A, not above -4.2.
In the case of C14G A26G U44A C99G C103U, the “polymerase ribozyme fitness (log ratio)” value is not above -4.2.
As for C14G G100U, the “polymerase ribozyme fitness (log ratio)” value is not above -4.2.
The figure for C14A U55A G68A A107U is not above -4.2; for C14G A17C U44A G81A C85U C125A it is not above -4.2.
The figure for U13G C27U C32G U56G C93U is not above -4.2; for U13C A40G C43U C87U G128C U139A it is not above -4.2.
With A12G G58A U148C, the “polymerase ribozyme fitness (log ratio)” value was -1.8.
With U13A A17U U45C G50A G83C C87U U104G G140A, the “polymerase ribozyme fitness (log ratio)” value is not above -4.2.
With U13G G83C C125G G133A U145G, the “polymerase ribozyme fitness (log ratio)” value is not above -4.2.
U13G G59A: the “polymerase ribozyme fitness (log ratio)” value is -1.2.
The figure for U13A A113U is -2.5; for A12G C18G A21U G68C G83A A97U C125U G140U G143U it is not above -4.2; for U13C G62C C99A U148G it is not above -4.2.
The figure for U13C U44A C87A G126U is not above -4.2; for A12U G58A U144C U146A it is -3.88; for U13C A52G G84A it is -1.1.

Values taken from the RNAGym collection of RNA variant scans (doi:10.1073/pnas.2313332121).
